The values that follow are results of earlier work, collected in article PMC11182772.

pKd: −log10 of the molar value.

The data set addresses Scc1-SA2 (Homo sapiens) (UniProt O60216).

Scc1-SA2 (Homo sapiens), sequence (O60216 whole entry, chain 1 of 2): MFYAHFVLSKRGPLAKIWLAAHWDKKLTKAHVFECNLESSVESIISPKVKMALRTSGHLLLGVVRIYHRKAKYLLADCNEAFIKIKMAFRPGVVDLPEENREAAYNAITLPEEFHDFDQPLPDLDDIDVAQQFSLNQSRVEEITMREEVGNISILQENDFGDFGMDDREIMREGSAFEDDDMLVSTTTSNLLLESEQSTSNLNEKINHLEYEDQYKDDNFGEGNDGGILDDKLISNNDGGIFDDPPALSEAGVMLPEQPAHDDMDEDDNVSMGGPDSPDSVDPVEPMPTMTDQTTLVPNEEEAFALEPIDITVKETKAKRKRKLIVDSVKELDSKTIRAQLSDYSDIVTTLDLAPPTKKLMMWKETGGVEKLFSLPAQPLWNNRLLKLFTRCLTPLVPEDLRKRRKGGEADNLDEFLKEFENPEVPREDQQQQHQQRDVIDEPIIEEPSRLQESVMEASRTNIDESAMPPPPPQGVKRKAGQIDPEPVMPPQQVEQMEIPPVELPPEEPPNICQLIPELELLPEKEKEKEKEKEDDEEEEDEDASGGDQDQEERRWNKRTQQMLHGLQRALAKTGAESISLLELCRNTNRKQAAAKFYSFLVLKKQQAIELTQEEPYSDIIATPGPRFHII
Scc1-SA2 (Homo sapiens), sequence (Q8N3U4 whole entry, chain 2 of 2, further chain): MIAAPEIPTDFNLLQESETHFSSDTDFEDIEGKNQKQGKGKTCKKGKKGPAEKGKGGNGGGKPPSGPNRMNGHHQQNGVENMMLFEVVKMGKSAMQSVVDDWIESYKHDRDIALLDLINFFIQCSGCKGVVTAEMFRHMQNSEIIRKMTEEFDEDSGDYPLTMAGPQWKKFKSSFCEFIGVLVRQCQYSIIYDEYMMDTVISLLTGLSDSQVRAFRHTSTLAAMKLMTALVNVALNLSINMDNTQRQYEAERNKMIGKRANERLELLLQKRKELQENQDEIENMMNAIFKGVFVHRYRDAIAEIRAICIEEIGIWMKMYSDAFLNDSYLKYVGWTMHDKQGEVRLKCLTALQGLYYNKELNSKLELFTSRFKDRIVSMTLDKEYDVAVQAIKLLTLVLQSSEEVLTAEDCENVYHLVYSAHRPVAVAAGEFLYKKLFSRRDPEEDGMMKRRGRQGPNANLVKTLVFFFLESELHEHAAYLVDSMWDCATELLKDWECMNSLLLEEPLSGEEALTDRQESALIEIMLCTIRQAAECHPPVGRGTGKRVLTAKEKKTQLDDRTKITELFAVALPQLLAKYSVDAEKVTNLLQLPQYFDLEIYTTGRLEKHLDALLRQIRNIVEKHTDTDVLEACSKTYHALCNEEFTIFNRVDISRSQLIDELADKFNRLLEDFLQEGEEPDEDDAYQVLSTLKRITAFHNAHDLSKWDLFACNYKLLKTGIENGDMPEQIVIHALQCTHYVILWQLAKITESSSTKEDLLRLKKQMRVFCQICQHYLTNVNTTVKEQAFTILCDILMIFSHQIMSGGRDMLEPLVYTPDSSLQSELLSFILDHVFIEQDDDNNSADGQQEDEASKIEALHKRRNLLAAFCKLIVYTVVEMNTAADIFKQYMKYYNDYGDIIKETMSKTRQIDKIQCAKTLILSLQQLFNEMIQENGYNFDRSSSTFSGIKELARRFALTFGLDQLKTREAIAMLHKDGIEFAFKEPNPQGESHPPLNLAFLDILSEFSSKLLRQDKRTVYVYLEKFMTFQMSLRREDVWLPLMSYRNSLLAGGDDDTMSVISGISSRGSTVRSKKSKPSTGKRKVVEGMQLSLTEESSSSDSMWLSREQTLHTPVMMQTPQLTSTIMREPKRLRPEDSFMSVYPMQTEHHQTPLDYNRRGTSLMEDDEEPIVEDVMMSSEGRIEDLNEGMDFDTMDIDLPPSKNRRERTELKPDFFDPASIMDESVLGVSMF

As usually defined, the pKd is the negative decadic logarithm of the Kd, by convention in mol/L. Take “CENP-U DVFDF motif peptide (from UniProt Q71F23)”: the pKd is 5.40.
